12 sequences from a protein production outcome set (Wang et al. 2014) can be followed below.

A short description of the data set: label from the status in PepcDB records.
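Also: failed if final PepcDB status was selected cloned or expressed and not failed if soluble or beyond.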

With “MTGKEEISSKYDDYSLKEVPKDSRYGFFNVFLVFSSVYGAIAVIWAGGALGYGLTFSQAIIAVLSGTVVLGILGSLTAAVGAYSGLSTYVMWRHPLGRWGGKIAGLLLITITTGIGWYAVETWLFGIVMSEIFPNNPFFSVGVAAIWGGILMTIMTYVGYRMLSFLSYFTIPFHIWLIAIGIAIVLALKGGFHTVMAAVPTSHMSLLDGISATIGLYSAGTIISPDISRFAKSAKDAGYAWFAHIIFLYPFLILGGVAIVLATGSYLITNAMLELGMGVGVLLIIVFGQFIINTDNLYSGSLSLVNLIPMRREIASVINGVIGTAIAAYVGFSAGSSITPFENFISLLGDFLPAMGGIVLADFYIVKKYVNKIQDPHKRYEFVPNNKYYNINIAGILALALGSIIGYFVNAGIPAINSLVTGFLSYIIIYYIIKAMGKSPEILPFNYEGGILR”, the protein production result is reported as “failed”.

As to “MTGKKRSASSSRWLQEHFSDKYVQQAQKKGLRSRAWFKLDEIQQSDKLFKPGMTVVDLGAAPGGWSQYVVTQIGGKGRIIACDLLPMDPIVGVDFLQGDFRDELVMKALLERVGDSKVQVVMSDMAPNMSGTPAVDIPRAMYLVELALEMCRDVLAPGGSFVVKVFQGEGFDEYLREIRSLFTKVKVRKPDSSRARSREVYIVATGRKP”, the protein production entry is “not failed”.

For the sequence “MTGLSQSQASPMQIQPGNAAFNPWTDAALDTIRDVNQALTLYAEMRVVPAHHDAFLAAIDTVSAKLRVLPGFLSLALKQMSGDSTMVKNYPETYKGVLATAYLDGVAAGTQPYFYNLFVRFADGRAARAAGFEALFETHIHPLLHAMAPRGGDGPELLAYRAVLQSVVAGDRHAIYRGAEEIRSFLRRPVELPERETVTVENHVMVPEDKHAAWEPQVAILLQVAQDTFEPQDEPSGVGLPGARDNRYYRKALSTEILRNAHADGGLRAYIMHGVWESVWDHENSHLDPRFLAAAGPVGAAAVVGPVEPFYLTRRLVVAD”, the protein production entry was “not failed”.

Regarding “MTGQELRQLLLDKWGYSYDVQFRRTQGKIFLQVMWKYLEQASFPMNETEYQEHLDSVANYLHALGGAVQVKTFITQTKERPRLGKAVSIPLDLGERASEWIILEHHHHHH”, the protein production entry is “not failed”.

Take “MTGSQETRITILDAMTANQIAAGEVVERPASVVKELVENSLDAAARHITVEIEGGGLQLIRVRDDGRGIEPEDAPLAFARHATSKIRRAADLARITTLGFRGEALASIAAVARVEMATRPPGRPGGTLVRVAGGKPPEVTETGCPPGTSVTVKDLFYNTPARRQYLKKPSTEARAIVATVERLALGHPGVAFSLSLDGRRSLATPGNGDLQAVLAALYGLEIGRELLPFNGSGAGWSLHGFTSPPWLHRSNRDQQVLLINGRYITNRLLTWAIESCYRNVIPAGRHPLFVLHLAVDPGEVDVNVHPAKLEVRLQREQDLARQVTNLVKGALFTPRAVAPATISRSGDRKGAGSAPPVQQGFTFREPDKQARYWGEYVLRERARENREPEWPEKTGENTGAIKTREVPEGNGPVERDKPDPIGPETPAEETGKQVLPPLRALGQVFNTYILAGGEDGLYIIDQHAAHERCRYEALVKEGTPGSHPAQMLEPPLPLHLAPDMQVKLIDQIITLRELGFIIEEFGTGVFLLRSVPLGIPPGKEREVLEDFLAESTLPAPERLLKLIACHGAIKAGQSLAGAEMQKLLDDLRGVDHPYTCPHGRPAVVRLDEAQLARYFHRHLK”: the protein production result is on record as “failed”.

Take “MTGTPQRSHPQPERTFVTIDFAALPDDFLWGTATSAYQIEGAVAEDGRSPSIWDTFSHTPGKIDNGDHGDVACDHYHRTHEDIELMRRLGTNAYRLSVAWPRVVPGGDGPVNAKGLAFYDRLVDDLLAAGITPSVTLYHWDLPQVLQDRGGWPERDTAEHFAAYAAVVAERLGDRVAHWATLNEPLCSAWIGHLEGKMAPGQTDLTAAVRASYHLLLGHGLAMQAIRAAAPDAQVGIVNNLSTIHAATDREEDLAAARRMDGHTNRWWLDPVHGRGFPQDMREVYGVELPERPGDMRLIGAELDWLGLNYYFPQTVAADPTGPAPQVRTVRRAGVPRTGMDWEIDAGGIEELLLRLTEEYGPRKLYVTENGSSFPDLVRPDGSVDDPERQEYLTAHLAACASAARKGAPLAGYFAWSLLDNFEWAYGYDKRFGLVHVDYATQVRTIKGSGHHYADIIGRARGRERKAA”: the protein production result was “failed”.

For the sequence “MTGTRIAIGICTFRRPGIAATLASLGALRWPEGMSGLVIVADNDETPSARETVHAAAKGLPLPVCYLHAPARNISVARNAILEAAGARGLERLAFLDDDEMVEPGWIEALTEALARTGAEAVLGPVRAEHGAEAPAWMRESAIHDTRPTFLPDGSIKSGYSCNVLMDLTAPALEGLRFDPERGRSGGEDTAFFEAMLRRGGRLGFAPDALVRETVPADRARLGWLLRRRFRMGQTHASLIAGPGRAQRAKQALVALSKVAACSGMALAAVHDPLRRNNALLRGALHVGTLSALFGARPITIYGGTGPAPSTFDSKTDSYLVSRSRT”, the protein production entry is “failed”.

Turning to “MTGVFLPPLPPSLRLQIKTMAESILPNAIRSQSQPQAFVQVEVWIRRLVWKIVIATVLLMAVGSATRVMNAGLACPDWPLCYGQWVPSQQMNLQVFLEWFHRLDAALIGFSTLILVGLSWWFRRVLPKWLPWATLGSLALILVQGLLGGLTVIELLRFDIVTAHLGTAMAFLGSLVIIGLCLMPYQSNQTAGKLRPVALASTTIIYLQCLLGGLVGSQWAAHQCLAIAGTQFCQVLHSHLLGVLPTVLGVGLTFWCTRRTPALNPFLRQLGNGALALLGGQILLGVATLKLHLQIEPLTVAHHTVGICLWATLLAIAVLAVRDHRPTAPITS”, the protein production entry is reported as “failed”.

Take “MTHLKIFLLLIVCALSVLDGKAQTGIALTDELNGKRIGVIGDSYVRNHKEPFENTWHYKFAKKHGMEYFNYGKNGNSIAYSSPRWGKAMYLRYAEMADSLDYVIVIGGHNDAFKLDSIGGIDNFKDKMEILCKGLVEKYPTAKIFFFTRWNCKNFKGSDSEKVVDAMIEVCGNYSIPIFDCARKGSIYADNDTFRRIYFQKSKNNTDTAHLNSKGHDRFLKVAESFLLQYLEHHHHHH”: the protein production entry is listed as “failed”.

Regarding “MTHVTLRSEFETLIDPYAPVAQVGTGFDFTEGPIWHPIDHYLLFSDMPGDVRRRWDARRGMAEVKRPSNKCNGMTYDAELNLIVCEHATSSLIRERPDGRREVLASHFGGQELNSPNDVCVHSSGAIYFSDPWYGRMPVYGVERPRQLGFQGVYRVMPGGEPKLVVDRNLFDQPNGLCFSPDERLLYVNDTVQALIRVFDVNADGTLSNARVFASSIKSELEPGLPDGMKCDQHGNVWVTAPGGVWVYSPRGELLGKVRVPELVANLAWGGPDFRTLYLTSTHSVYAIPTRVGPRHEPYMSGRRGGAGASAGPAAAAPILTDGEMRLDPQRCAMIIQDLQNDVIMDGGAFDGSGAPAHAKQQHVVENVRRLAEAARARGVAIIHVWFVVEPGAPGVTLNAPLFEGLVDSKAMVRGSWGAAPVSGLEPRPGDFVVEKMRMSAWEGTRLETILKATGRDMIINTGAWTNMSVEHTARTGADKGYFMIVPEDCCSTMNADWHSASINFAMQNVAIVTRADAVIRALG”, the protein production result is on record as “failed”.

With “MTHYHFVGIKGSGMSSLAQIMHDLGHEVQGSDIESYVFTEVALRNKGIKILPFDANNITKEMVVIQGNAFPDNHEEIVRAHELKLDIIKYHDFLGHVINQYTSVAVTGAHGKTSTTGLLSHVMNGDKKTSFLIGDGTGMGLPGSDYFAFEACEYRRHFLSYHPDYAIMTNIDFDHPDYFKNIDDVYDAFQHMALNVKKGIIAWGDDEYLRKLDVDIPVYYYGFKETDDIYAKNIQITEKGTQFDVYIKGEFYDQFLSPQYGNHNILNALAVIAISYLEDMNVENIKEALITFGGVKRRFNETKVSNQVIVDDYAHHPREISATIETARKKYPQKDVVAVFQPHTFSRTQAFLNEFAESLSKADQVFLCEIFGSIRENTGDLTIEDLINRIDGSTLIDENSIDVLEKFDNAVILFMGAGDIQKLLKAYFEKLGVKNDF”, the protein production result was “failed”.

As to “MTIADIVMLTATIIIWSLLIVNILLVIFGYVYYLKTDPVAPPPVEDEDAPFVSIMVPAHNEGIVIVRTVEALLNFNYPQDRYEIIVINDNSSDNSAELLANVQKKAVNRNLQIINTDNITGGKGKSNALNIGFKQAKGDVIAIYDADNTPEPNALRYLVGELIASEEYGAVIGKFRTRNRNASLLTRFINIETLAFQWMAQAGRFQLFKLCTIPGTNFIVRRSIIEAIGGWDDKALAEDTEISFRIYMMGYKIKFQPKAVTWEQEPQTLSVWFRQRTRWVKGNIYVIVKNAKLLFNPKASRIRFDILYFLSIYFLLMTSLVLSDIMLVLSMSGYLTTTLQGFSNSLWLLAILLFIFSTFVSITTEKGEMTLENILIIALMYITYSQMWLVVAAYGMVMYIKENVFHKQTQTKWYKTERFK”, the protein production result is on record as “failed”.
